# Measurements from publication PMC5491494, “Functional and dynamic polymerization of the ALS-linked protein TDP-43 antagonizes its pathologic aggregation” (Nature Communications, 2017).
# B1: wild-type superoxide dismutase 1 (SOD1), endogenous mouse (enzyme)
# chain: not shown
# notes: superoxide dismutase 1, mouse, endogenous in brain slices; source: endogenous, mouse brain slices
# Target: the molecule itself
# Assay: cross-linking; in situ 1 mM DSG on minced human brain tissue (cerebellum, motor cortex) or mouse organotypic brain slices (control or 0.25 mM arsenite for 2 h), 37 °C, 30 min, quenched with 20 mM Tris; nucleo-cytoplasmic fractionation; immunoblot
protein,measurement,value
B1,stoichiometry N,2
